Data from paper PMC4899739.

These substances were tested against chicken type I interleukin-1 receptor (chicken) (assay: SPR; BIAcore 3000, 25 °C; chicken IL-1RI (5 μg/ml in 10 mM sodium acetate, pH 5.5) immobilised on a CM5 chip by amine coupling (~370 RU); IL-1β or mutant flowed at 30 μl/min in 10 mM HEPES pH 7.2, 150 mM NaCl, 0.001% Tween-20; 90 s association and dissociation; 1:1 Langmuir fit).
Work on “wild-type chicken interleukin-1 beta (ligand)” yielded a Kd of 0.12 nM. In the case of “chicken interleukin-1 beta mutant E118K (ligand)”, the Kd is reported as 0.37 nM. With “chicken interleukin-1 beta mutant T117A (ligand)” the Kd was 0.23 nM.
